Test results from patent US20210388084A1.

Tests used:
[1] = biological target: membrane-bound full-length human CD89 (human) (UniProt P24071); test: FACS, HEK293F-huCD89, 4C +NaN3, Ab 10 ug/mL then IgA; competitor heat-aggr serum IgA
[2] = biological target: membrane-bound full-length human CD89 (human) (UniProt P24071); test: FACS, HEK293F-huCD89, 4C +NaN3, IgA then Ab 10 ug/mL; pre-bound non-aggr serum IgA
[3] = biological target: membrane-bound full-length human CD89 (human) (UniProt P24071); test: FACS, HEK293F-huCD89, titrated Ab; competitor non-aggr serum IgA
[4] = biological target: membrane-bound full-length human CD89 (human) (UniProt P24071); test: FACS, HEK293F-huCD89, 24 h 37C no NaN3, IgA then Ab 10 ug/mL; pre-bound heat-aggr serum IgA
[5] = biological target: membrane-bound full-length human CD89 (human) (UniProt P24071); test: FACS, HEK293F-huCD89, 4C +NaN3, Ab 10 ug/mL then IgA; competitor non-aggr serum IgA
[6] = biological target: membrane-bound full-length human CD89 (human) (UniProt P24071); test: FACS, HEK293F-huCD89, 24 h 37C no NaN3, Ab 10 ug/mL then IgA; competitor non-aggr serum IgA
[7] = biological target: membrane-bound full-length human CD89 (human) (UniProt P24071); test: FACS, HEK293F-huCD89, 4C +NaN3, IgA then Ab 10 ug/mL; pre-bound heat-aggr serum IgA
[8] = biological target: membrane-bound full-length human CD89 (human) (UniProt P24071); test: FACS, HEK293F-huCD89, 24 h 37C no NaN3, Ab 10 ug/mL then IgA; competitor heat-aggr serum IgA
[9] = biological target: membrane-bound full-length human CD89 (human) (UniProt P24071); test: FACS, HEK293F-huCD89 (Example 7 (b)); competitor heat-aggr serum IgA
[10] = biological target: membrane-bound full-length human CD89 (human) (UniProt P24071); test: FACS, HEK293F-huCD89 (Example 7 (b)); competitor non-aggr serum IgA
[11] = biological target: membrane-bound full-length human CD89 (human) (UniProt P24071); test: FACS, HEK293F-huCD89, 24 h 37C no NaN3, IgA then Ab 10 ug/mL; pre-bound non-aggr serum IgA
[12] = biological target: membrane-bound full-length human CD89 (human) (UniProt P24071); test: FACS, HEK293F-huCD89, titrated Ab; competitor heat-aggr serum IgA
[13] = biological target: membrane-bound full-length human CD89 (human) (UniProt P24071); test: FACS, HEK293F-huCD89, unlabeled Ab 10 ug/mL first; competitor A3-PE
[14] = biological target: membrane-bound full-length human CD89 (human) (UniProt P24071); test: FACS, HEK293F-huCD89, unlabeled Ab 10 ug/mL first; competitor A59-PE
[15] = biological target: membrane-bound full-length human CD89 (human) (UniProt P24071); test: FACS, HEK293F-huCD89, unlabeled Ab 10 ug/mL first; competitor MIP8a-PE

Row | Substance | % blocking of IgA binding [1] | percent IgA binding [1] | percent IgA binding [2] | maximum inhibition of IgA binding [3] | percent IgA binding (remaining) [4] | % blocking of IgA binding [5] | percent IgA binding [5] | percent IgA binding (remaining) [6] | percent IgA binding [7] | percent IgA binding (remaining) [8] | maximum inhibition of IgA binding [9] | maximum inhibition of IgA binding [10] | percent IgA binding (remaining) [11] | maximum inhibition of IgA binding [12] | % blocking of A3-PE binding [13] | % blocking of A59-PE binding [14] | % blocking of MIP8a-PE binding [15]
1 | mouse anti-human CD89 antibody clone A59 (BD Biosciences) | 60% | 26 to 50% | 76 to 125% | 60% | 76 to 125% | 60% | 26 to 50% | 26 to 50% | 76 to 125% | 76 to 125% | 60% | 60% | 26 to 50% | 60% | > 90% | > 90% | < 25%
2 | mouse anti-human CD89 antibody clone A3 (Santa Cruz Biotechnology) | 60% | 26 to 50% | 76 to 125% | 60% | 76 to 125% | 60% | 26 to 50% | 26 to 50% | 76 to 125% | 76 to 125% | 60% | 60% |  | 60% | > 90% | > 90% | < 25%
3 | mouse anti-human CD89 antibody clone MIP8a (BioRad) |  | 0 to 25% | 0 to 25% |  | 0 to 25% |  | 0 to 25% | 0 to 25% | 0 to 25% | 0 to 25% |  |  | 0 to 25% |  | 55% | 50% | > 90%
4 | purified mouse IgG1 isotype control (antibody) |  | 76 to 125% | 76 to 125% |  | 76 to 125% |  | 76 to 125% | 76 to 125% | 76 to 125% | 76 to 125% |  |  | 76 to 125% |  |  |  | 
